16 molecules from patent publication EP4520771A2 (Genmab A/S, dated 2025) can be followed below.

Where two headings read alike, the source gives them in different places.

In experiment [1] the target is T1, human epidermal growth factor receptor 2 (HER2) (human, UniProt P04626 23-1255). Briefly: cell-based or functional assay.
Experiment [2] has as its target T1, human epidermal growth factor receptor …. Briefly: cell-based or functional assay. This is another data set of the same source.
The target is the same in experiment [3]. Briefly: flow cytometry on A431 cells.
The target is the same in experiment [4]. Briefly: flow cytometry on AU565 cells.
Experiment [5] shares this target. Briefly: cell-based or functional assay. This is another data set of the same source.
For experiment [6] the target is unchanged. Briefly: cell-based or functional assay. This is another data set of the same source.
Experiment [7] has the same target. Briefly: cell-based or functional assay. The source holds these as a separate data set.

B1: HER2 antibody 159 (antibody, V domains shown)
VH: EVQLVQSGAEVKKPGESLKISCKGSGYNFTSYWIGWVRQMPGKGLEWMGIIYPGDSDTRYSPSFQGQVTISADKSISTAYLQWSSLKASDTAMYYCARWGTYYDILTGYFNWFDPWGQGTLVTVSS
VL: DIQMTQSPSSLSASVGDRVTITCRASQGISSWLAWYQQKPEKAPKSLIYAASSLQSGVPSRFSGSGSGTDFTLTISSLQPEDFATYYCQQYYIYPWTFGQGTKVEIK
Take B1: in experiment [1], the “% cells killed (maximal), AU565 cells, anti-kappa-ETA'-conjugated antibody” value (from here on “% cells killed (maximal), AU565 cells”) came to 70.3% and the “EC50 of AU565 cell kill, anti-kappa-ETA'-conjugated antibody” value (from here on “EC50 of AU565 cell kill”) was found to be 0.0349 µg/mL.

B2: HER2 antibody 098 (antibody, V domains shown)
VH: EVQLLESGGGLVQPGGSLRLSCAASGFTFSNYGMSWVRQAPGKGLEWVSAISGSAYSTYYADSVKGRFTISRDNSKNTLWLQMNSLRAEDTAVYYCAKAHYHGSGSYYTLFDYWGQGTLVTVSS
VL: DIQMTQSPSSLSASVGDRVTITCRASQGISSWLAWYQQKPEKAPKSLIYAASSLQSGVPSRFSGSGSGTDFTLTISSLQPEDFATYYCQQYNSYPYTFGQGTKLEIK
notes: also called PC1014-098; TH1014-098
Take B2: in experiment [1], the “% cells killed (maximal), AU565 cells” value was found to be 58.7% and the “EC50 of AU565 cell kill” value was determined as 0.0121 µg/mL. In addition, in experiment [2], the “% cells killed (maximal), A431 cells, anti-kappa-ETA'-conjugated antibody” value (“% cells killed (maximal), A431 cells” below) was found to be 87.2% and the “EC50 of A431 cell kill, anti-kappa-ETA'-conjugated antibody” value (from here on “EC50 of A431 cell kill”) stood at 0.00165 µg/mL. In experiment [3], this molecule came in with a 50% effective concentration (EC50) of 0.068 µg/mL. Moreover, in experiment [4], it took 0.336 µg/mL to reach a half-maximal effect (EC50).

B3: HER2 antibody 025 (antibody, V domains shown)
VH: QVQLQQWGAGLLKPSETLSLTCAVYGGSFSDYYWNWIRQPPGKGLEWIGEIHHSGSTNYNPSLKSRVTISVDTSKNQFSLKLSSVTAADTAVYYCARGYYDSGVYYFDYWAQGTLVTVSS
VL: DIQMTQSPSSLSASVGDRVTITCRASQGISRWLAWYQQKPEKAPKSLIYAASSLRSGVPSRFSGSGSGTDFTLTISSLQPEDFATYYCQQYNSYPITFGQGTRLEIK
notes: also called HuMab-025; PC1014-025
With B3, in experiment [1], the “% cells killed (maximal), AU565 cells” value came to 60% and the “EC50 of AU565 cell kill” value was determined as 0.0167 µg/mL. Moreover, in experiment [2], the “% cells killed (maximal), A431 cells” value was 86.7% and the “EC50 of A431 cell kill” value is ~0.00977 µg/mL. Further, the binding result in experiment [3] is reported as “binds”.

B4: HER2 antibody 153 (antibody, V domains shown)
VH: QVQLVESGGGVVQPGRSLRLSCAASGFTFSDYVIHWVRQAPGKGLEWVTVISYDGSNKYYADSVKGRFTISRDNSKNTLYLQMNSLSAEDTAMYYCARGGITGTTGVFDYWGQGTLVTVSS
VL: DIQMTQSPSSLSASVGDRVTITCRASQGISSWLAWYQQKPEKAPKSLIYDASSLQSGVPSRFSGSGYGTDFSLTISSLQPEDFAIYYCQQYKSYPITFGQGTRLEIK
For B4, in experiment [1], the “% cells killed (maximal), AU565 cells” value was 60.3% and the “EC50 of AU565 cell kill” value came out at 0.0323 µg/mL. For the same molecule, in experiment [2], the “% cells killed (maximal), A431 cells” value is 82.4% and the “EC50 of A431 cell kill” value was ~0.0101 µg/mL.

B5: HER2 antibody 091 (antibody, V domains shown)
VH: QVQLQQWGAGLLKPSETLSLTCAVSGGSFSGYYWTWIRQPPGKGLEWIGEIYHSGDTNYNPSLKSRVTISVDTSKNQFSLKLYSVTAADTAVYYCARLYFGSGIYYLDYWGQGTLVTVSS
VL: DIQMTQSPSSLSASVGDRVTITCRASQGISSWLVWYQQKPEKAPKSLIYAASSLQSGVPSRFSGSGSGTDFTLTISSLQPEDFATYYCQQYNSFPPTFGQGTKVEIK
For B5, in experiment [1], the “% cells killed (maximal), AU565 cells” value was determined as 50.6% and the “EC50 of AU565 cell kill” value was 0.0465 µg/mL. Further, in experiment [2], the “% cells killed (maximal), A431 cells” value is 83.3% and the “EC50 of A431 cell kill” value is ~0.00986 µg/mL.

B6: HER2 antibody 169 (antibody, V domains shown)
VH: QVQLVQSGAEVKKPGASVKVSCKASGYTFTNYGISWVRQAPGQGLEWMGWLSAYSGNTIYAQKLQGRVTMTTDTSTTTAYMELRSLRSDDTAVYYCARDRIVVRPDYFDYWGQGTLVTVSS
VL: EIVLTQSPATLSLSPGERATLSCRASQSVSSYLAWYQQKPGQAPRLLIYDASNRATGIPARFSGSGSGTDFTLTISSLEPEDFAVYYCQQRSNWPRTFGQGTKVEIK
For the molecule B6, in experiment [1], the “% cells killed (maximal), AU565 cells” value came to 49.9% and the “EC50 of AU565 cell kill” value stood at 0.0356 µg/mL. In addition, the “% cells killed (maximal), A431 cells” value in experiment [2] is 34%.

B7: HER2 antibody 127 (antibody, V domains shown)
VH: EVQLVQSGAEVKKPGESLTISCKGSGYSFSIYWIGWVRQMPGKGLEWMGIIFPGDSDIRYSPSFQGQVTISADKSISTAYLQWSSLKASDTAMYYCARQPGDWSPRHWYFDLWGRGTLVTVSS
VL: VIWMTQSPSLLSASTGDRVTISCRMSQGISSYLAWYQQKPGKAPELLIYAASTLQSGVPSRFSGSGSGTDFTLTISYLQSEDFATYYCQQYYSFPLTFGGGTKVEIK
B7: in experiment [1], the “% cells killed (maximal), AU565 cells” value came out at 69% and the “EC50 of AU565 cell kill” value stood at 0.0345 µg/mL.

B8: HER2 antibody 005 (antibody, human IgG1, V domains shown)
VH: EVQLVQSGAEVKKPGESLKISCKASGYSFHFYWIGWVRQMPGKGLEWMGSIYPGDSDTRYRPSFQGQVTISADKSISTAYLQWTSLKASDTAIYYCARQRGDYYYFYGMDVWGQGTTVTVSS
VL: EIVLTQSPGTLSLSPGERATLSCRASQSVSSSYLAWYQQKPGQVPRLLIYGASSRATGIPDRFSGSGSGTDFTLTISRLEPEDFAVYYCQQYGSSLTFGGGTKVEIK
notes: human IgG1,κ; also called HuMab 005; PC1014-005
Turning to B8, in experiment [5], the “% cells killed (maximal), AU565 cells” value is 69.7% and the “EC50 of AU565 cell kill” value was 0.0151 µg/mL. In experiment [6], the “EC50 of A431 cell kill” value was ~0.0101 µg/mL. Besides, the binding result in experiment [3] is given as “binds”.

B9: HER2 antibody 059 (antibody, V domains shown)
VH: QVQLVQSGAEVKKPGASVRVPCKASGYTFTRYGISWVRQAPGQGLEWMGWISAYNGKTYYAQKLQGRVTMTTDTSTSTAYMELRSLRSDDTAVYYCARSPLLWFEELYFDYWGQGTLVTVSS
VL: EIVLTQSPGTLSLSPGERATLSCRASQSVSSTYLAWYQQKPGQAPRLLIYGASSRATGIPDRFSGSGSGTDFTLTISRLEPEDFAVYYCQQYGTSLFTFGPGTKVDIK
In the case of B9, in experiment [5], the “% cells killed (maximal), AU565 cells” value was determined as 67% and the “EC50 of AU565 cell kill” value is 0.0677 µg/mL.

B10: HER2 antibody 129 (antibody, V domains shown)
VH: QVQLVESGGGVVQPGRSLRLSCAASGFTFSTFAIHWVRQAPGKGLEWVAVISYDGGHKFYADSVKGRFTISRDNSKNTLYLQMNSLRAEDTAMYYCARGLGVWGAFDYWGQGTLVTVSS
VL: EIVLTQSPATLSLSPGERATLSCRASQSVSSYLAWYQQKPGQAPRLLIYDASNRATGIPARFSGSGSGTDFTLTISSLEPEDFAVYYCQQRSNWWTFGQGTKVEIK
Turning to B10, in experiment [1], the “% cells killed (maximal), AU565 cells” value worked out at 60.8% and the “EC50 of AU565 cell kill” value was 0.0309 µg/mL. In experiment [2], the “% cells killed (maximal), A431 cells” value worked out at 75.9% and the “EC50 of A431 cell kill” value was ~0.0106 µg/mL.

B11: HER2 antibody 084 (antibody, V domains shown)
VH: QVQLVQSGAEVKKPGSSVKVSCKASGGTFRTYAINWVRQAPGQGLEWMGRINTVLGIVNHAQKFQGRVTITADKSTNTAYMELNSLRSEDTAVYYCAREKGVDYYYGIEVWGQGTTVTVSS
VL: DIQMTQSPSSVSASVGDRVTITCRASQGISSWLAWYQHKPGKAPKLLIYVASTLQSGVPSRFSGSGSGTDFTLTISSLQPEDFATYYCQQANSFPLTFGGGTKVEIK
Take B11: in experiment [1], the “% cells killed (maximal), AU565 cells” value worked out at 58.1% and the “EC50 of AU565 cell kill” value is 0.027 µg/mL. For the same molecule, the “% cells killed (maximal), A431 cells” value in experiment [2] stood at 50.5%.

B12: HER2 antibody 050 (antibody, V domains shown)
VH: EVQLLESGGGLVQPGGSLRLSCAASGFTFSSYAMNWVRQAPGKGLEWVSAISGRGGTTYYADSVKGRFTISRDNSKNTLYLQMSSLRAEDTAVYYCAKARANWDYFDYWGQGTLVTVSS
VL: DIQMTQSPSSVSASVGDRVTITCRASQGISSWLAWYQHKPGKAPKLLIYAASILQSGVPSRFSGSGSGTDFTLTISSLQPEDFATYYCQQANSFPITFGQGTRLEIK
As to B12, in experiment [1], the “% cells killed (maximal), AU565 cells” value turned out to be 52.4% and the “EC50 of AU565 cell kill” value came out at 0.0127 µg/mL.

B13: HER2 antibody 060 (antibody, V domains shown)
VH: EVQLVQSGAEVKKPGESLKISCKGSGYRFTSYWIGWVRQMPGKGLEWMGSIYPGDSYTRNSPSFQGQVTISADKSIATAYLQWNSLKASDTAMYYCARHAGDFYYFDGLDVWGQGTTVTVSS
VL: not shown
For B13, in experiment [5], the “% cells killed (maximal), AU565 cells” value is 64.3% and the “EC50 of AU565 cell kill” value was found to be 0.0794 µg/mL. Also, the “EC50 of A431 cell kill” value in experiment [6] was ~0.01 µg/mL.

B14: HER2 antibody 132 (antibody, V domains shown)
VH: QVQLVQSGAEVKKPGASVKVSCKASGYTFTSYGISWVRQAPGQGLEWMGWISAYNGNSNYVQKFQGRVTMTTDTTTSTAYMELRSLTSDDTAVYYCAREYSYDSGTYFYYGMDVWGQGTTVTVSS
VL: EIVLTQSPATLSLSPGERATLSCRASQSVSSYLAWYQQKPGQAPRLLIYDASNRATGIPARFSGSGSGTDFTLTISSLEPEDFAVYYCQQRSNWPMYTFGQGTKLEIK
Regarding B14, in experiment [1], the “% cells killed (maximal), AU565 cells” value stood at 61.6% and the “EC50 of AU565 cell kill” value came out at 0.0394 µg/mL.

B15: HER2 antibody 111 (antibody, V domains shown)
VH: QVQLVQSGAEVKKPGSSVKVSCKASGGTFSSYGISWVRQAPGPGLEWMGRIIPILGIANYAQKFQGRVTITADKSTNTAYMELSSLRSEDTAVYYCARDQEYSSNWYYWGQGTLVTVSS
VL: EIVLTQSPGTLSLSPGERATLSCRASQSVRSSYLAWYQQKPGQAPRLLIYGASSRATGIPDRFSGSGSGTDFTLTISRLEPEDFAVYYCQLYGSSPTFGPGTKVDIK
In the case of B15, the “EC50 of A431 cell kill” value in experiment [7] was ~0.01 µg/mL. In addition, in experiment [5], the “% cells killed (maximal), AU565 cells” value was found to be 72% and the “EC50 of AU565 cell kill” value was determined as 0.0242 µg/mL.

B16: HER2 antibody 106 (antibody, V domains shown)
VH: EVQLVQSGAEVKKPGESLKISCKGSGYSFTRYWIGWVRQMPGKGLEWMGIIYPGDSDTRYSPSFQGQVTISADKSISTAYLQWSSLKASDTAMYYCARLTGDRGFDYYSGMDVWGQGTTVTVSS
VL: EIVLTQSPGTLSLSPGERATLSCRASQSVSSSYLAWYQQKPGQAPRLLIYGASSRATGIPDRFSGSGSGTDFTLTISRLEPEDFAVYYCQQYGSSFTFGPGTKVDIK
In the case of B16, in experiment [5], the “% cells killed (maximal), AU565 cells” value was determined as 59.1% and the “EC50 of AU565 cell kill” value is 0.108 µg/mL.
